Laboratory results published in patent US20170101472A1 (Regeneron, published 2017).

T1: monkey LAG3 (mfLAG3) expressed on HEK293 cells (cynomolgus monkey, UniProt P18627 24-525 (human entry))
T1 construct: also called HEK293/mfLAG3; HEK293-mfLAG3
T1 chain: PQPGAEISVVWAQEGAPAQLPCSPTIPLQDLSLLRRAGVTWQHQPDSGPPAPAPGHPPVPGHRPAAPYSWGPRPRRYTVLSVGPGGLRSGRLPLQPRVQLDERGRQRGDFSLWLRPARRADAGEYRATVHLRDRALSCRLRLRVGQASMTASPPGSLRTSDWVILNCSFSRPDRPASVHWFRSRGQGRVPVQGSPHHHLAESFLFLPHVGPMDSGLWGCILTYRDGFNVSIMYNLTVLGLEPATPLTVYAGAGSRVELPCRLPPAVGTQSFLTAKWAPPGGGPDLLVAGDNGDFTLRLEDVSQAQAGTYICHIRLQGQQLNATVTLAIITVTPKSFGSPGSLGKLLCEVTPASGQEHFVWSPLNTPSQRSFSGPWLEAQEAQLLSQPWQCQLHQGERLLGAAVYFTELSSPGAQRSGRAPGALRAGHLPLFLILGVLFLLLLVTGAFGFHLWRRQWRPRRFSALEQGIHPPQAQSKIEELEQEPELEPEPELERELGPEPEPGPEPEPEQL

T2: human LAG3 expressed on HEK293 cells (human, UniProt P18627 23-525)
T2 construct: also called hLAG3; HEK293/hLAG3
T2 sequence: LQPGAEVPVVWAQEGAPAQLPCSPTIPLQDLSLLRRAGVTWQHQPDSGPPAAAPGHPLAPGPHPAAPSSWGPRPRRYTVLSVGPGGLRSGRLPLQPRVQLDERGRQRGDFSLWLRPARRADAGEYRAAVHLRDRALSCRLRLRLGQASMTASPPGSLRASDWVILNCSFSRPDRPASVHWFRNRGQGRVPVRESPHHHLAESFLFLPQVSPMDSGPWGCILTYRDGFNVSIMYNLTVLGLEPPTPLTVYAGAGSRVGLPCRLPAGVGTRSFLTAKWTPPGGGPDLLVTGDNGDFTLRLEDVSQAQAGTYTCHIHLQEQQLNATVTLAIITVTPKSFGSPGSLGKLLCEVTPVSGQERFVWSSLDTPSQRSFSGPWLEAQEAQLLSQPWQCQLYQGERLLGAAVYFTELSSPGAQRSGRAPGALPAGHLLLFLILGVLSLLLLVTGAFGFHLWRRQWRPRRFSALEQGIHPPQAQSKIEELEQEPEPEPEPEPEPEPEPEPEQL


Key:
[1] = target: T1, monkey LAG3 (mfLAG3) expressed on …; experiment: flow cytometry, HEK293/mfLAG3 cells; FACS on HEK293/mfLAG3 cells; MFI ratio 100 nM/0 nM
Description: (§1) The serially diluted antibodies were added to the cell suspension and incubated for 15-30 minutes on ice. The cells were centrifuged and pellets were washed with staining buffer to remove unbound antibodies. […] The cells were centrifuged and pellets were washed with staining buffer to remove unbound secondary F(ab′)2 and fixed overnight with a 1:1 dilution of Cytofix (BD Biosciences, #554655) and staining buffer. Following day, fixed cells were centrifuged and pellets were washed with staining buffer, resuspended and filtered. Fluorescence measurements were acquired on HyperCyt® cytometer and analyzed in ForeCyt™ (IntelliCyt; Albuquerque, N. Mex.) to determine the mean fluorescence intensities (MFI). The EC₅₀ values were calculated from a four-parameter logistic equation over an 11-point response curve using GraphPad Prism. EC₅₀ was defined as the concentration of antibody at which 50% of maximal binding signal is detected. The MFI ratio for each antibody was calculated by dividing the MFI at 100 nM by MFI at 0 nM of antibody concentration.

[2] = target: T1, monkey LAG3 (mfLAG3) expressed on …; experiment: flow cytometry, HEK293/mfLAG3 cells; FACS on HEK293/mfLAG3 cells
Description: as §1

[3] = target: T2, human LAG3 expressed on HEK293 cells; experiment: flow cytometry, HEK293/hLAG3 cells
Description: as §1

Ratio of MFI (100 nM/0 nM) [1] | EC50 [2] [nM] | EC50 [3] [nM] | Ratio of MFI (100 nM/0 nM) [3] | Binder
16.7 | 1.57 | 1.18 | 197 | H4sH14813N (antibody, human IgG4 S228P, kappa, V domains shown, H4sH = modified human IgG4 Fc) VH: QVQLQQWGAGLLKPSETLSLTCAVYGGSFSGYYWNWIRQPPGKGLEWVGEISHRGSTNYNPSLKSRVTISLDTSKNQFSLKLTSVTAADTAVYYCSRDEELEFRFFDYWGQGTLVTVSS VL: EIVLTQSPATLSLSPGERATLSCRASQSVSSYLAWYQQKPGQAPRLLVYGASNRATGIPARFSGSGSGTDFTLTISSLEPEDFAFYYCQQRSNWPLTFGGGTKVEIKR
17.1 | 1.42 | 1.44 | 208 | H4H14813N (antibody, human IgG4, V domains shown, H4H = human IgG4 Fc with S108P hinge mutation) VH: QVQLQQWGAGLLKPSETLSLTCAVYGGSFSGYYWNWIRQPPGKGLEWVGEISHRGSTNYNPSLKSRVTISLDTSKNQFSLKLTSVTAADTAVYYCSRDEELEFRFFDYWGQGTLVTVSS VL: EIVLTQSPATLSLSPGERATLSCRASQSVSSYLAWYQQKPGQAPRLLVYGASNRATGIPARFSGSGSGTDFTLTISSLEPEDFAFYYCQQRSNWPLTFGGGTKVEIK
 | 2.2 | 1.91 |  | H4H15482P (antibody, human IgG4 S228P, kappa, H4H = human IgG4 Fc with S108P) heavy: not shown light: EIVLTQSPATLSLSPGERTTLSCRASQRISTYLAWYQQKPGQAPRLLIYDASKRATGIPARFSGSGSGTGFTLTISSLEPEDFAVYYCQQRSNWPLTFGGGTKVEIKRTVAAPSVFIFPPSDEQLKSGTASVVCLLNNFYPREAKVQWKVDNALQSGNSQESVTEQDSKDSTYSLSSTLTLSKADYEKHKVYACEVTHQGLSSPVTKSFNRGEC
20.7 | 0.902 | 0.903 | 199 | H4sH15479P (antibody, V domains shown) VH: QVQLQQWGAGLLNPSETLSLTCAVYGGAFSDYYWNWIRQPPGKGLEWIGEINHRGSTNYNPSLKSRVTISVDTSKNQFSLRMSSVTAADAAVYYCARGEDYDIWNGYYQEKWGQGTLVTVSS VL: EIVLTQSPATLSLSPGERATLSCRASQSISTYLAWYQQKPGQAPRLLIYDASKRATGIPARFSGSGSGTDFTLTISSLEPEDFVVYYCHQRSNWPLTFGGGTKVEIK
